According to the supplement of paper PMC9170038:

Tests used:
MS2 coat protein [1] = experiment: apparent KD of MS2 coat protein; higher = weaker reporter binding; conditions: Eterna round: R101
Experimental: (§1)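 RNA-MaP: designed FMN/MS2 RNA switches (84 nt design region) are transcribed on-chip within common flanks and titrated with SNAP-549-labelled MS2 coat protein (about 1-3000 nM) in 100 mM Tris pH 7.5, 80 mM KCl, 4 mM MgCl2, without or with 200 uM FMN. Median apparent KD per design; activation ratio = KD,OFF / KD,ON.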

MS2 coat protein [2] = experiment: apparent KD of MS2 coat protein; designed switch direction (-1 OFF switch, 1 ON switch): 1; higher = weaker reporter binding; conditions: Eterna round: R98
Experimental: as §1

“GUCAGCUCGUGAGGAUAUACAUCACUGCUUCGGCAGUGUAUUAAGAUCACAUGAGGAUCACCCAUGUAGAAGGCACGAGCUGAU [#SameSwitchNG2InvertedNG3 NG2 A1] (puzzle (switch architecture): Exclusion NG 2)” was tested, and the “apparent KD of MS2 coat protein” value (MS2 coat protein [1]; input ligand: FMN 200 uM) was 201 nM and the “apparent KD of MS2 coat protein” value (MS2 coat protein [1]; input ligand: none) was 14.6 nM.
“UGCUAACUGUAGAAGGGUGACAUGAGGAUCACCCAUGUGCACGCGCGAUUUACGGCGCGCGUGCCACAGGAUAUACAGUUUAGU [Atquar] (puzzle (switch architecture): Inverted Same State NG 2)” was tested, and the “apparent KD of MS2 coat protein” value (MS2 coat protein [1]; input ligand: FMN 200 uM) was 34.3 nM and the “apparent KD of MS2 coat protein” value (MS2 coat protein [1]; input ligand: none) was 32.7 nM.
With “CCGACGCCUCAGAAGGCACUCGCAUAAUGCGAGUGAGGAUAUGAGGAUCACCCAUAUCAACGUCGGAGUCACCGAAACGGUGAC [#SharedSequence - IEx NG 1-2] (puzzle (switch architecture): Inverted Exclusion NG 1)” the “apparent KD of MS2 coat protein” value (MS2 coat protein [1]; input ligand: FMN 200 uM) was 78.1 nM.
With “AAAUAACUUGAAGGAUAUCAGGGUGCACCUCAGUAAAACUGAGGUGCACCCUGAGAAGGUCGAGGAUCACCCGAUCUAAAUAAA [#SharedSequence SLExNG1: 3-2] (puzzle (switch architecture): Small Loop Exclusion NG 1)” the “apparent KD of MS2 coat protein” value (MS2 coat protein [1]; input ligand: FMN 200 uM) was 13.5 nM and the “apparent KD of MS2 coat protein” value (MS2 coat protein [1]; input ligand: none) was 9.19 nM.
For “GGAGAUACAUGAGGAUCACCCAUGUAGGAUAUCGGGCCCAUAUACGGCGAAAGCCGUAUAUGGGCCGAGAAGGGCGUACACACC [#LOL-7] (puzzle (switch architecture): Small Loop Exclusion NG 3)”, the “apparent KD of MS2 coat protein” value (MS2 coat protein [1]; input ligand: FMN 200 uM) was 7.96 nM and the “apparent KD of MS2 coat protein” value (MS2 coat protein [1]; input ligand: none) was 8.78 nM.
With “AGGUAUACUUAGAAGGCGUGGACGAAACGUCCACGAGGAUAUGAGGAUCACCCAUAUCAGGUCAGCCUGCAAAGCAGGCUGACC [#SharedSequence - IExNG1: 8-2] (puzzle (switch architecture): Inverted Exclusion NG 1)” the “apparent KD of MS2 coat protein” value (MS2 coat protein [1]; input ligand: FMN 200 uM) was 43.9 nM and the “apparent KD of MS2 coat protein” value (MS2 coat protein [1]; input ligand: none) was 12.2 nM.
For “CAACUGGCACAGAAGGGUGACAUGAGGAUCACCCAUGUAGCGUGGCACUCAGGAGGAGCCACGCCACAGGAUAUGUGCCGACAC [Beisreriar] (puzzle (switch architecture): Inverted Same State NG 2)”, the “apparent KD of MS2 coat protein” value (MS2 coat protein [1]; input ligand: FMN 200 uM) was 45.7 nM and the “apparent KD of MS2 coat protein” value (MS2 coat protein [1]; input ligand: none) was 29.9 nM.
“GGCAGCCUUCAGAAGGGAGUGCGAUAAUCGCACUCAGGAUAUGAGGAUCACCCAUAUCAAGCUGCCACUGAGGCAAAGCCUCAG [#SharedSequence - IEx NG 2-1] (puzzle (switch architecture): Inverted Exclusion NG 1)” was tested, and the “apparent KD of MS2 coat protein” value (MS2 coat protein [1]; input ligand: FMN 200 uM) was 12.1 nM and the “apparent KD of MS2 coat protein” value (MS2 coat protein [1]; input ligand: none) was 10.8 nM.
In the case of “UUGGACGUCGUAGGAUAUGUAGGAUAUUCCUACAUGAGGAUCACCCAUGUUUACAUGGAAGAAGGACAGAAGGACGAUGUCCAU (puzzle (switch architecture): Same State NG 2)”, the “apparent KD of MS2 coat protein” value (MS2 coat protein [1]; input ligand: FMN 200 uM) is reported as 5.73 nM and the “apparent KD of MS2 coat protein” value (MS2 coat protein [1]; input ligand: none) is reported as 572 nM.
For “GGAGAUACAUGAGGAUCACCCAUGUAGGAUAUAUAGUAUAUAUAUAUCGAAAGAUAUAUAUAUAUAUAGAAGGGCGUGCACACC [#LOL-16] (puzzle (switch architecture): Small Loop Exclusion NG 3)”, the “apparent KD of MS2 coat protein” value (MS2 coat protein [1]; input ligand: FMN 200 uM) was 6.74 nM and the “apparent KD of MS2 coat protein” value (MS2 coat protein [1]; input ligand: none) was 8.34 nM.
In the case of “AAAACAUGAGGAUCACCCAUGUAAAGAUCGGUUAUUAAAAGUGAGGAUAUACAAAAUUUUAUAUAGUAGAAGGCACUGGGUACA [JR_SSNG3_Sub001]”, the “apparent KD of MS2 coat protein” value (MS2 coat protein [2]; input ligand: FMN 200 uM) is reported as 28.9 nM and the “apparent KD of MS2 coat protein” value (MS2 coat protein [2]; input ligand: none) is reported as 27.8 nM.
With “GACGAAAUCUUAGGAUAUCGAGUGGAAUACACUCGAGAAGGAAGAUAUACCUGAGGAUCACCCAGGUAAAACUGGACGUCAAUA [Same State NG1 - A3C, U17G Submission 8H U68A, U7A]” the “apparent KD of MS2 coat protein” value (MS2 coat protein [2]; input ligand: FMN 200 uM) was 26.6 nM and the “apparent KD of MS2 coat protein” value (MS2 coat protein [2]; input ligand: none) was 29.8 nM.
For “GCUGUCGCAUGAGGAUAUGGUCACGUUUCGUGACCAGAAGGCAUGUCAAUAGACAUGAGGAUCACCCAUGUAGUAAAGACAGCA [Mat - Same State NG 1 - JL Mod - D40]”, the “apparent KD of MS2 coat protein” value (MS2 coat protein [2]; input ligand: FMN 200 uM) was 35.1 nM and the “apparent KD of MS2 coat protein” value (MS2 coat protein [2]; input ligand: none) was 386 nM.
